From US20060067886A1, “Gastrin receptor-avid peptide conjugates” (priority 1997, published 2006)

Assay: in vivo
Conditions: SCID, mouse, in vivo, iv, 4 uCi, total radioactivity; for tissue uptake at […] / tissue uptake at 1 h / tissue uptake at 48 h / tissue uptake at 0.5 h / tissue uptake at 4 h / tissue uptake at 24 h / tissue uptake at 72 h: Avg % ID/gm

CSCC[C@H](NC(=O)[C@H](CC(C)C)NC(=O)[C@H](Cc1cnc[nH]1)NC(=O)CNC(=O)[C@@H](NC(=O)[C@H](C)NC(=O)[C@H](Cc1c[nH]c2ccccc12)NC(=O)[C@H](CCC(N)=O)NC(=O)CCCCCCCNC(=O)CN1CCN(CC(=O)O)CCN(CC(=O)O)CCN(CC(=O)O)CC1)C(C)C)C(N)=O [111In-DOTA-8-Aoc-BBN[7-14]NH2, metal not drawn]
tissue uptake dose at […] (Avg % ID, Blood, 15 min): 7.92 ± 2.03 %ID | tissue uptake dose at 0.5 h (Avg % ID, Blood, 30 min): 2.47 ± 0.74 %ID | tissue uptake dose at 1 h (Avg % ID, Blood, 1 hr): 0.92 ± 0.58 %ID | tissue uptake dose at 48 h (Avg % ID, Blood): 0.12 ± 0.05 %ID | tissue uptake dose at […] (Avg % ID, Carcass, 15 min): 33.1 ± 5.51 %ID | tissue uptake dose at 0.5 h (Avg % ID, Carcass, 30 min): 12.3 ± 3.27 %ID | dose excreted at 24 h (Avg % ID, Feces, 24 hrs): 6.1 ± 2.6% | dose excreted at 48 h (Avg % ID, Feces): 5.89 ± 3.81% | tissue uptake dose at […] (Avg % ID, Heart, 15 min): 0.2 ± 0.07 %ID | tissue uptake dose at 0.5 h (Avg % ID, Heart, 30 min): 0.06 ± 0.02 %ID | tissue uptake dose at 4 h (Avg % ID, Heart, 4 hrs): 0.01 ± 0.01 %ID | tissue uptake dose at 48 h (Avg % ID, Heart): 0.01 ± 0.01 %ID | tissue uptake dose at […] (Avg % ID, Kidney, 15 min): 7.18 ± 3.16 %ID | tissue uptake dose at 0.5 h (Avg % ID, Kidney, 30 min): 2.45 ± 0.78 %ID | tissue uptake dose at 1 h (Avg % ID, Kidney, 1 hr): 1.81 ± 0.37 %ID | tissue uptake dose at 4 h (Avg % ID, Kidney, 4 hrs): 0.97 ± 0.08 %ID | tissue uptake dose at 48 h (Avg % ID, Kidney): 0.16 ± 0.04 %ID | tissue uptake dose at […] (Avg % ID, L. Intestine, 15 min): 5.84 ± 0.9 %ID | tissue uptake dose at 0.5 h (Avg % ID, L. Intestine, 30 min): 4.53 ± 0.45 %ID | tissue uptake dose at 1 h (Avg % ID, L. Intestine, 1 hr): 2.18 ± 0.86 %ID | tissue uptake dose at 24 h (Avg % ID, L. Intestine, 24 hrs): 1.46 ± 0.42 %ID | tissue uptake dose at 48 h (Avg % ID, L. Intestine): 0.73 ± 0.21 %ID | tissue uptake dose at 72 h (Avg % ID, L. Intestine, 72 hrs): 0.41 ± 0.05 %ID | tissue uptake dose at […] (Avg % ID, Liver, 15 min): 1.85 ± 0.41 %ID | tissue uptake dose at 0.5 h (Avg % ID, Liver, 30 min): 0.85 ± 0.21 %ID | tissue uptake dose at 72 h (Avg % ID, Liver, 72 hrs): 0.08 ± 0.01 %ID | tissue uptake dose at […] (Avg % ID, Lung, 15 min): 0.62 ± 0.25 %ID | tissue uptake dose at 0.5 h (Avg % ID, Lung, 30 min): 0.2 ± 0.06 %ID | tissue uptake dose at 24 h (Avg % ID, Lung, 24 hrs): 0.02 ± 0.01 %ID | tissue uptake dose at 48 h (Avg % ID, Lung): 0.01 %ID | tissue uptake dose at […] (Avg % ID, Muscle, 15 min): 0.16 ± 0.06 %ID | tissue uptake dose at 0.5 h (Avg % ID, Muscle, 30 min): 0.05 ± 0.02 %ID | tissue uptake dose at 1 h (Avg % ID, Muscle, 1 hr): 0.01 ± 0.01 %ID | tissue uptake dose at 24 h (Avg % ID, Muscle, 24 hrs): 0.01 ± 0.01 %ID | tissue uptake dose at […] (Avg % ID, Pancreas, 15 min): 10.3 ± 1.44 %ID | tissue uptake dose at 0.5 h (Avg % ID, Pancreas, 30 min): 7.37 ± 1.2 %ID | tissue uptake dose at 4 h (Avg % ID, Pancreas, 4 hrs): 3.28 ± 0.8 %ID | tissue uptake dose at 48 h (Avg % ID, Pancreas): 0.17 ± 0.09 %ID | tissue uptake dose at 72 h (Avg % ID, Pancreas, 72 hrs): 0.06 ± 0.02 %ID | tissue uptake dose at […] (Avg % ID, S. Intestine, 15 min): 6.98 ± 0.35 %ID | tissue uptake dose at 0.5 h (Avg % ID, S. Intestine, 30 min): 6.24 ± 0.46 %ID | tissue uptake dose at 1 h (Avg % ID, S. Intestine, 1 hr): 7.45 ± 1.62 %ID | tissue uptake dose at 4 h (Avg % ID, S. Intestine, 4 hrs): 2.43 ± 0.56 %ID | tissue uptake dose at 24 h (Avg % ID, S. Intestine, 24 hrs): 0.98 ± 0.26 %ID | tissue uptake dose at 48 h (Avg % ID, S. Intestine): 0.32 ± 0.07 %ID | tissue uptake dose at 72 h (Avg % ID, S. Intestine, 72 hrs): 0.15 ± 0.02 %ID | tissue uptake dose at […] (Avg % ID, Spleen, 15 min): 0.1 ± 0.02 %ID | tissue uptake dose at 0.5 h (Avg % ID, Spleen, 30 min): 0.08 ± 0.03 %ID | tissue uptake dose at 48 h (Avg % ID, Spleen): 0.01 ± 0.01 %ID | tissue uptake dose at 72 h (Avg % ID, Spleen, 72 hrs): 0.01 ± 0.01 %ID | tissue uptake dose at […] (Avg % ID, Stomach, 15 min): 0.98 ± 0.18 %ID | tissue uptake dose at 0.5 h (Avg % ID, Stomach, 30 min): 0.65 ± 0.04 %ID | tissue uptake dose at 1 h (Avg % ID, Stomach, 1 hr): 0.52 ± 0.11 %ID | tissue uptake dose at 4 h (Avg % ID, Stomach, 4 hrs): 0.34 ± 0.23 %ID | tissue uptake dose at 72 h (Avg % ID, Stomach, 72 hrs): 0.02 ± 0.01 %ID | tissue uptake dose at […] (Avg % ID, Tumor, 15 min): 1.92 ± 1.22 %ID | tissue uptake dose at 0.5 h (Avg % ID, Tumor, 30 min): 0.99 ± 0.62 %ID | tissue uptake dose at 24 h (Avg % ID, Tumor, 24 hrs): 0.25 ± 0.13 %ID | tissue uptake dose at 48 h (Avg % ID, Tumor): 0.08 ± 0.05 %ID | dose excreted at […] (Avg % ID, Urine, 15 min): 27.9 ± 10.3% | dose excreted at 0.5 h (Avg % ID, Urine, 30 min): 62.6 ± 5.02% | dose excreted at 1 h (Avg % ID, Urine, 1 hr): 68.6 ± 6.96% | dose excreted at 4 h (Avg % ID, Urine, 4 hrs): 81.8 ± 3.82% | dose excreted at 24 h (Avg % ID, Urine, 24 hrs): 87.2 ± 4.31% | dose excreted at 48 h (Avg % ID, Urine): 91.8 ± 4.13% | dose excreted at 72 h (Avg % ID, Urine, 72 hrs): 92.5 ± 1.09% | tissue uptake at […] (Blood, 15 min): 5.58 ± 2.43 %ID/g | tissue uptake at 1 h (Blood, 1 hr): 0.6 ± 0.39 %ID/g | tissue uptake at 48 h (Blood): 0.07 ± 0.03 %ID/g | tissue uptake at […] (Heart, 15 min): 2.2 ± 1.05 %ID/g | tissue uptake at 0.5 h (Heart, 30 min): 0.62 ± 0.33 %ID/g | tissue uptake at 4 h (Heart, 4 hrs): 0.13 ± 0.06 %ID/g | tissue uptake at 24 h (Heart, 24 hrs): 0.05 ± 0.09 %ID/g | tissue uptake at […] (Kidney, 15 min): 29 ± 14.4 %ID/g | tissue uptake at 0.5 h (Kidney, 30 min): 8.7 ± 2.8 %ID/g | tissue uptake at 1 h (Kidney, 1 hr): 5.66 ± 1.33 %ID/g | tissue uptake at 4 h (Kidney, 4 hrs): 3.18 ± 0.43 %ID/g | tissue uptake at 48 h (Kidney): 0.48 ± 0.09 %ID/g | tissue uptake at […] (L. Intestine, 15 min): 8.58 ± 3.04 %ID/g | tissue uptake at 0.5 h (L. Intestine, 30 min): 4.33 ± 0.44 %ID/g | tissue uptake at 1 h (L. Intestine, 1 hr): 4.29 ± 2.55 %ID/g | tissue uptake at 4 h (L. Intestine, 4 hrs): 10.3 ± 2.7 %ID/g | tissue uptake at 24 h (L. Intestine, 24 hrs): 2.35 ± 0.43 %ID/g | tissue uptake at 48 h (L. Intestine): 0.81 ± 0.2 %ID/g | tissue uptake at 72 h (L. Intestine, 72 hrs): 0.45 ± 0.04 %ID/g | tissue uptake at […] (Liver, 15 min): 2.03 ± 0.85 %ID/g | tissue uptake at 0.5 h (Liver, 30 min): 0.7 ± 0.21 %ID/g | tissue uptake at 72 h (Liver, 72 hrs): 0.07 ± 0.02 %ID/g | tissue uptake at 0.5 h (Lung, 30 min): 0.94 ± 0.28 %ID/g | tissue uptake at 48 h (Lung): 0.06 ± 0.02 %ID/g | tissue uptake at 72 h (Lung, 72 hrs): 0.02 ± 0.02 %ID/g | tissue uptake at […] (Muscle, 15 min): 1.3 ± 0.6 %ID/g | tissue uptake at 0.5 h (Muscle, 30 min): 0.32 ± 0.12 %ID/g | tissue uptake at 1 h (Muscle, 1 hr): 0.08 ± 0.07 %ID/g | tissue uptake at […] (Pancreas, 15 min): 54.3 ± 9.7 %ID/g | tissue uptake at 0.5 h (Pancreas, 30 min): 27.9 ± 3.44 %ID/g | tissue uptake at 4 h (Pancreas, 4 hrs): 16.6 ± 4.43 %ID/g | tissue uptake at 48 h (Pancreas): 0.77 ± 0.44 %ID/g | tissue uptake at 72 h (Pancreas, 72 hrs): 0.23 ± 0.08 %ID/g | tissue uptake at 0.5 h (S. Intestine, 30 min): 5.16 ± 1.06 %ID/g | tissue uptake at 1 h (S. Intestine, 1 hr): 6.8 ± 1.81 %ID/g | tissue uptake at 4 h (S. Intestine, 4 hrs): 2.24 ± 0.35 %ID/g | tissue uptake at 48 h (S. Intestine): 0.25 ± 0.06 %ID/g | tissue uptake at 72 h (S. Intestine, 72 hrs): 0.12 ± 0.02 %ID/g | tissue uptake at […] (Spleen, 15 min): 2.21 ± 0.8 %ID/g | tissue uptake at 0.5 h (Spleen, 30 min): 0.83 ± 0.26 %ID/g | tissue uptake at […] (Stomach, 15 min): 3.3 ± 1.99 %ID/g | tissue uptake at 0.5 h (Stomach, 30 min): 1.82 ± 0.44 %ID/g | tissue uptake at 1 h (Stomach, 1 hr): 1.99 ± 0.24 %ID/g | tissue uptake at 72 h (Stomach, 72 hrs): 0.05 ± 0.02 %ID/g | tissue uptake at 0.5 h (Tumor, 30 min): 4.58 ± 0.53 %ID/g | tissue uptake at 4 h (Tumor, 4 hrs): 1.78 ± 1.09 %ID/g | tissue uptake at 48 h (Tumor): 0.68 ± 0.24 %ID/g | tissue uptake at 72 h (Tumor, 72 hrs): 0.34 ± 0.1 %ID/g | dose excreted at 24 h (excretion through the hepatobiliary pathway, 24 hours p.i.): 8.5%
